Data from paper PMC10112281.
Like-named read-outs stand apart in the source and are kept apart here. Where no end group is shown, it is not given here.

Experiments:
[1] = target: FIP200 CLAW domain (Homo sapiens) (UniProt Q8TDY2); details: cited from earlier work
[2] = target: FIP200 CLAW domain (Homo sapiens) (UniProt Q8TDY2); details: cited from earlier work; remark: listed apart in the source
[3] = target: T1, FITC-labeled TNIP1 FIR peptide, unmodified; experiment: fluorescence polarisation
T1 chain: SSGTSSEFEVVTPEE

[4] = target: T2, FITC-labeled TNIP1 FIR peptide, pS123; experiment: fluorescence polarisation
T2 chain: SSGTSSEFEVVTPEE

[5] = target: T3, FITC-labeled TNIP1 FIR peptide, pS122; experiment: fluorescence polarisation
T3 chain: SSGTSSEFEVVTPEE

[6] = target: recombinant His6-TEV-FIP200-CLAW domain; experiment: fluorescence polarisation

In the case of OPTN (from UniProt Q96CV9), the Kd [1] is listed as 306 µM.

For “OPTN phosphorylated (from UniProt Q96CV9)”, the Kd [2] is listed as 11.5 µM.

B1: recombinant His6-TEV-FIP200-CLAW domain (domain or fragment)
chain: SRHSEKIAIRDFQVGDLVLIILDERHDNYVLFTVSPTLYFLHSESLPALDLKPGEGASGASRRPWVLGKVMEKEYCQAKKAQNRFKVPLGTKFYRVKAVSWNKKV
modifications: not checked
With B1 the Kd [3] was 46 µM, the Kd [4] was 3.27 µM and the Kd [5] was 9.7 µM.

For SSGTSSEFEVVTPEE (also: phosphoserine pS123, place not mapped) [unlabeled TNIP1 pS123 peptide], the IC50 [6] was 70.2 µM.
